According to patent US20190375786A1, “STABLE PEPTIDES AND METHODS OF USE THEREOF” (Fred Hutchinson Cancer Research Center, priority 2016, published 2019):

Tests used:
[1] = molecular target: trypsin (Sus scrofa, UniProt P00761); test: Trypsin digestion resistance of soluble peptide, RP-HPLC; assay type: in vitro ADME, porcine; design: purchased Sigma Aldrich 6567; details: 30 minutes at 37.5° C.; for Resistance to Trypsin (500 U/ml): 500 U/ml trypsin, HPLC peak vs untreated peptide
Method in brief: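 12.5 μg soluble peptide digested with 500 U/ml porcine trypsin in PBS, 30 min at 37.5° C; quenched with soybean trypsin inhibitor, with or without 10 mM DTT reduction afterwards. Intact peptide assessed by C-18 RP-HPLC, 5-45% acetonitrile/0.1% TFA gradient over 10 min.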

[2] = Resistance to reduction by DTT, RP-HPLC; assay type: physicochemical; details: for Resistance to DTT Reduction (10 mM): 10 mM DTT in PBS, room temperature, 30 minutes, HPLC peak vs untreated peptide
Protocol: Peptides were first suspended in 500 ul of ddH2O to a stock concentration of 2 mg/ml. Reactions were prepared by adding 12.5 ug of peptide from the stock solution to a 10 mM solution of DTT in PBS and allowed to incubate at room temperature for 30 minutes. Other reactions were prepared with 12.5 μg peptide with or without 500 U/ml pepsin in simulated gastric fluid (SGF; pH 1.05; […] sodium chloride in 0.7% (v/v) hydrochloric acid) and were incubated for 30 minutes at 37.5° C. Some reactions were quenched with a final concentration of 100 mM Tris base and 10 mM dithiothreitol (DTT). Some reactions were performed in all of the above components, including simulated gastric fluid, pepsin, Tris, and DTT (referred to as SPTD). Reversed phase HPLC (RP-HPLC) was run on samples using an Agilent 1260 HPLC equipped with a C-18 Poroshell 120B column. Sample were analyzed by a gradient method with a mobile phase of Solvent A (water with 0.1% TFA) and Solvent B (acetonitrile with 0.1% TFA). Solvent B was ramped up from 5%-45% of the mobile phase over a period of 10 minutes. Peptides were detected at an absorbance of 214 nm and 280 nm.
(§1) Peptides were first suspended in 500 μl of ddH2O to a stock concentration of 2 mg/ml. Reactions were prepared by adding 12.5 μg of peptide from the stock solution to a 10 mM solution of DTT in PBS and allowed to incubate at room temperature for 30 minutes. Other reactions were prepared with 12.5 μg peptide and 500 U/ml trypsin in 25 mM Tris/75 mM NaCl buffer (pH 7.0) and incubated for 30 minutes at 37.5° C. These reactions were then quenched with 5 μg of soybean trypsin inhibitor (I) and, in some cases, 10 mM dithiothreitol (DTT). Reversed phase HPLC (RP-HPLC) was run on samples using an Agilent 1260 HPLC equipped with a C-18 Poroshell 120B column. Sample were analyzed by a gradient method with a mobile phase of Solvent A (water with 0.1% TFA) and Solvent B (acetonitrile with 0.1% TFA). Solvent B was ramped up from 5%-45% of the mobile phase over a period of 10 minutes. For testing pepsin digestion resistance, reactions were prepared with 12.5 μg peptide with or without 500 U/ml pepsin in simulated gastric fluid (SGF; pH 1.05; […] sodium chloride in 0.7% (v/v) hydrochloric acid) and were incubated for 30 minutes at 37.5° C. For testing temperature resistance, peptides were incubated at 70° C., 75° C., or 100° C. for one hour in 0.5 mM PBS, pelleted, and then the supernatant was analyzed by HPLC.
This example illustrates peptide stability in biological conditions including in the presence of reducing agents, proteases, oxidative conditions, acidic conditions, and simulated gastric fluids. […] Various peptides were suspended in 500 μl of ddH2O at a stock concentration of 2 mg/ml. This was then diluted in accord with the reaction conditions to prevent adverse buffering effects. Reactions were prepared with 12.5 μg peptide dissolved in solution and, in some samples, additionally suspended in a 10 mM solution of DTT, simulated gastric fluid (pH 1.05; […] sodium chloride in 0.7% (v/v) hydrochloric acid), 500 U pepsin (5000 U/ml pepsin), 50 U trypsin (500 U/ml trypsin) with 1 mg/ml inhibitor in PBS, or a combination of any of these conditions. All protease reactions were incubated for 30 min at room temperature and then quenched. Pepsin reactions were quenched by adding Tris base to a final concentration of 0.075 M. Trypsin reactions were quenched by adding excess soybean trypsin inhibitor. RP-HPLC was then run on samples using an Agilent 1260 HPLC equipped with a C-18 Poroshell 120B column. Sample were analyzed by a gradient method with a mobile phase of Solvent A (water with 0.1% TFA) and Solvent B (acetonitrile with 0.1% TFA). Solvent B was ramped up from 5%-45% of the mobile phase over a period of 10 minutes.
FIG. 18 illustrates high performance liquid chromatograph (HPLC) traces of peptides in non-reducing (NR) conditions (solid trace) or in 10 mM DTT reducing (R) conditions (dashed trace). […]

[3] = Resistance to elevated temperature, HPLC; assay type: physicochemical; details: HPLC peak vs untreated peptide
Protocol: as §1
This example illustrates peptide stability at high temperatures. Peptides were first suspended in 500 μl of ddH2O to a stock concentration of 2 mg/ml. Reactions were prepared by adding 6.25 μl of peptide from the stock solution with 95 μl ddH2O and incubated at room temperature, 70° C., or 100° C. for one hour in a Thermocycler. RP-HPLC was then run on samples using an Agilent 1260 HPLC equipped with a C-18 Poroshell 120B column. Sample were analyzed by a gradient method with a mobile phase of Solvent A (water with 0.1% TFA) and Solvent B (acetonitrile with 0.1% TFA). Solvent B was ramped up from 5%-45% of the mobile phase over a period of 10 minutes.

[4] = molecular target: pepsin (Sus scrofa, UniProt P00791); test: Pepsin digestion resistance in simulated gastric fluid, RP-HPLC; assay type: in vitro ADME, porcine; design: purchased Sigma Aldrich P7012; details: 500 U/ml pepsin in SGF pH 1.05, 30 minutes at 37.5° C.; HPLC peak vs untreated peptide
pepsin, sequence (P00791 60-385): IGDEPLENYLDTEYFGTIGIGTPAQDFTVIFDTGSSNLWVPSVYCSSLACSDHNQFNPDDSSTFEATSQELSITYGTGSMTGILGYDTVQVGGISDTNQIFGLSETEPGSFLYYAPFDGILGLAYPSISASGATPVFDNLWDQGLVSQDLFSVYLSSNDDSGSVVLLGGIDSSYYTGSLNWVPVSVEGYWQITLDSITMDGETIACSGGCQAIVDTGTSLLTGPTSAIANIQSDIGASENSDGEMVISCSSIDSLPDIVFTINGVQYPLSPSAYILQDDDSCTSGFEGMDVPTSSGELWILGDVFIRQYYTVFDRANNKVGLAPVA
Method in brief: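 Peptide (12.5 μg) incubated 30 min at 37.5 °C with or without 500 U/ml pepsin in simulated gastric fluid (pH 1.05; 2% NaCl in 0.7% HCl); some reactions quenched with 100 mM Tris and 10 mM DTT. Intact peptide followed by C-18 RP-HPLC (5–45% acetonitrile/0.1% TFA over 10 min) at 214 and 280 nm.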

trypsin, sequence (P00761 9-231): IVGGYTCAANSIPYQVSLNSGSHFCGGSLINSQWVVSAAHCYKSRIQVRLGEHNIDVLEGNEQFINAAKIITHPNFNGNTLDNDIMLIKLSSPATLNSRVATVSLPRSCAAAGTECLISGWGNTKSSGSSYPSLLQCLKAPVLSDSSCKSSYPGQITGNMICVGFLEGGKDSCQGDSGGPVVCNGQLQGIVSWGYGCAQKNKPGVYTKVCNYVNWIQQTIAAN

With “1 (GSDCLPHLRRCRADNDCCGRRCRRRGTNAERRCR) [compound 1]” the “Resistance to Trypsin (500 U/ml)” value [1] was “Moderate (A peptide classified as medium indicates that about half (between 25% and 75%) of the HPLC peak of the treated peptide disappeared as compared to the HPLC peak of the untreated peptide)” and the “Resistance to DTT Reduction (10 mM)” value [2] was “Low (A peptide classified as low indicates that the majority (over 75%) of the HPLC peak of the treated peptide disappeared as compared to the HPLC peak of the untreated peptide)”.

For “46 (GSDCKYKFENWGACDGGTGTKVRQGTLKKARYNAQCQETIRVTKPC) [compound 46]”, the “Resistance to Trypsin (500 U/ml)” value [1] was “Low (A peptide classified as low indicates that the majority (over 75%) of the HPLC peak of the treated peptide disappeared as compared to the HPLC peak of the untreated peptide)”, the “Resistance to Temperature (75° C.)” value ([3]; 75° C. for one hour) was “High (A peptide classified as high indicates that the majority (at least 75%) of the HPLC peak of the treated peptide is still present as compared to the HPLC peak of the untreated peptide)” and the “Resistance to Temperature (100° C.)” value ([3]; 100° C. for one hour) was “Low (A peptide classified as low indicates that the majority (over 75%) of the HPLC peak of the treated peptide disappeared as compared to the HPLC peak of the untreated peptide)”. The “Resistance to DTT Reduction (10 mM)” value [2] was “Low (A peptide classified as low indicates that the majority (over 75%) of the HPLC peak of the treated peptide disappeared as compared to the HPLC peak of the untreated peptide)” and the “Resistance to Pepsin (500 U/ml)” value [4] was “Low (A peptide classified as low indicates that the majority (over 75%) of the HPLC peak of the treated peptide disappeared as compared to the HPLC peak of the untreated peptide)”.

In the case of “26 (GSVGCEECPMHCKGKNANPTCDDGVCNCNV) [compound 26]”, the “Resistance to Trypsin (500 U/ml)” value [1] is reported as “Moderate (A peptide classified as medium indicates that about half (between 25% and 75%) of the HPLC peak of the treated peptide disappeared as compared to the HPLC peak of the untreated peptide)” and the “Resistance to DTT Reduction (10 mM)” value [2] is reported as “Low (A peptide classified as low indicates that the majority (over 75%) of the HPLC peak of the treated peptide disappeared as compared to the HPLC peak of the untreated peptide)”.

With “42 (GSFGLYDNQCATSDACSAICKYWTGSGQGKCQNNQCRCY) [compound 42]” the “Resistance to DTT Reduction (10 mM)” value [2] was “Low (A peptide classified as low indicates that the majority (over 75%) of the HPLC peak of the treated peptide disappeared as compared to the HPLC peak of the untreated peptide)”.

With “41 (GSPDEYIERAKECCKKGDIQCCLRYFEESGDPNVMLICLACP) [compound 41]” the “Resistance to DTT Reduction (10 mM)” value [2] was “Low (A peptide classified as low indicates that the majority (over 75%) of the HPLC peak of the treated peptide disappeared as compared to the HPLC peak of the untreated peptide)”.

With “44 (GSPDEYIERAKECCKKQDIQCCLRIFDESGDPNVMLICLFCW) [compound 44]” the “Resistance to DTT Reduction (10 mM)” value [2] was “Moderate (A peptide classified as medium indicates that about half (between 25% and 75%) of the HPLC peak of the treated peptide disappeared as compared to the HPLC peak of the untreated peptide)”.

For “GSDCLPHLRRCRADNDCCGRRCRRRGTNAERRCR [SEQ ID NO: 1]”, the “resistance to trypsin digestion (in words)” value ([1]; 500 U/ml trypsin (50 U per reaction), HPLC) was “partially resistant” and the “resistance to reduction by DTT (in words)” value ([2]; 10 mM DTT, HPLC vs non-reduced peptide) was “not resistant”.
